From patent US20250002610A1 (Genmab, published 2025)

Columns and labels:
[1] = target: T1, human DR4 (Death Receptor 4), cell surface expressed on human tumor cell lines (human, UniProt O00220 24-468); assay: flow cytometry, DLD-1 cells, average ± SEM
T1 construct: also called TNFRSF10A; TRAIL-R1
T1 sequence: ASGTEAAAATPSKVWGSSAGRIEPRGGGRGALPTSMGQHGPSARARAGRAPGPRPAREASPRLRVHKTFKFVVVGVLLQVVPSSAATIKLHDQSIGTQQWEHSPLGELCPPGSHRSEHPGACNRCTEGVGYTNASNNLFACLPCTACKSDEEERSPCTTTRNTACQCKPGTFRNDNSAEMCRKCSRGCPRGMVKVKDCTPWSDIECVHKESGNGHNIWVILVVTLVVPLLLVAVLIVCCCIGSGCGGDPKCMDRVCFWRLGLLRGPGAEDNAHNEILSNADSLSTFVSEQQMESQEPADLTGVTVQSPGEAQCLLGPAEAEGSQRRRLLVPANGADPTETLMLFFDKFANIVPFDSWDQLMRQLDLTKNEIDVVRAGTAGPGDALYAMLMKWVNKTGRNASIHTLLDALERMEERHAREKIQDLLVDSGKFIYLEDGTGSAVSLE

[2] = target: T1, human DR4 (Death Receptor 4), cell …; assay: flow cytometry, MDA-MB-231 cells, N = 1
[3] = target: T2, human FAPα (Fibroblast activation protein alpha), cell surface expressed (human, UniProt Q12884 1-760); assay: flow cytometry, Expi293F cells expressing human FAPα, average ± SEM
T2 construct: Endogenous on human lung fibroblasts and CAFs
T2 sequence: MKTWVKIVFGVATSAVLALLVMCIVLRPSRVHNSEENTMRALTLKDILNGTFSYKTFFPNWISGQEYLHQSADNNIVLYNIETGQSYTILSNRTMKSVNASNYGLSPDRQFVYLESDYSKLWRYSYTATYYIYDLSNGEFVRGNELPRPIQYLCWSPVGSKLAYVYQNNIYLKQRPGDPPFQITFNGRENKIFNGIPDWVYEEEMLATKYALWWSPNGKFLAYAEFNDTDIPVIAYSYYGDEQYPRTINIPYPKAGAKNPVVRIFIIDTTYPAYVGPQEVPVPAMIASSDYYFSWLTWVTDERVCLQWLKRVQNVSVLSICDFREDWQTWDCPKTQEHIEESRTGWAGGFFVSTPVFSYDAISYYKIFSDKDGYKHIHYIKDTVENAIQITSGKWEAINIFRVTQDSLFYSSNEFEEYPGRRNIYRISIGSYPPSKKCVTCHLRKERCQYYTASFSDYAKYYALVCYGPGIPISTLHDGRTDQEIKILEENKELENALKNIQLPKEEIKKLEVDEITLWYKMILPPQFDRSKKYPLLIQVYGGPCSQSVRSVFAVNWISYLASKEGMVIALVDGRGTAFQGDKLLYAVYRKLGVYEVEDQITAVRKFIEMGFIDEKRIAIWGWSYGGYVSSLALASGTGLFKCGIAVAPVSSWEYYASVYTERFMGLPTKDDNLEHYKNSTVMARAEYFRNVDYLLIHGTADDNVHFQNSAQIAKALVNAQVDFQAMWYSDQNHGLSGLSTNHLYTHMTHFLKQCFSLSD
Experimental: Binding of BisG1-FAPα-FERL/DR4-FERR, BisG1-FAPα-FEAL/b12-FEAR and IgG1-FAPα-FERL to FAPα of species commonly used for nonclinical toxicology studies was assessed by flow cytometry using Expi293F cells transiently expressing FAPα from different animal species. IgG1-b12 was included as negative control.
Expi293F cells expressing recombinant FAPα from various species (human, cynomolgus monkey, dog, pig, rat or mouse) were seeded (20,000 cells/well) in 96-Well round bottom plates (Greiner Bio-one, Cat #650101). Antibody dilutions were prepared using FACS buffer, consisting of PBS (Capricorn Scientific, Cat #PBS-10XA, diluted to 1×PBS in distilled water)+1% BSA (Roche, Cat #10735086001)+0.02% Sodium Azide (Bio-World, Cat #41920044-3). Plates were centrifuged, supernatant was removed, and cells were resuspended in 100 μL of antibody dilutions (concentration range 30-0.00017 μg/mL with three-fold serial dilutions using FACS buffer) of BisG1-FAPα-FERL/DR4-FERR, BisG1-FAPα-FEAL/b12-FEAR, IgG1-FAPα-FERL and IgG1-b12 and incubated for 30 min at 4° C. […] After 30 min incubation at 4° C., cells were washed with FACS buffer and resuspended in FACS buffer supplemented with TO-PRO-3 Iodide viability marker (Invitrogen, Cat #T3605, diluted 1:4,000). Antibody binding to viable cells (gMFI of PE on TO-PRO-3 negative cells) was analyzed by flow cytometry on a FACS Celesta and FACS_Diva software (first two experiments) or iQue® 3 and FlowJo software (last experiment). gMFI was determined and visualized using GraphPad Prism. Binding curves were analyzed using nonlinear regression analysis. The concentration (pg/mL) at which 50% of the maximal effect was observed (EC₅₀) was derived from the fitted curves.

[4] = target: T1, human DR4 (Death Receptor 4), cell …; assay: flow cytometry, DLD-1 cells, n = 1

EC50 [3]: 0.24 mg/L
B1: BisG1-FAPα-FERL/DR4-FERR (bispecific antibody, human IgG1, kappa, lambda)
heavy 1: EVQLLESGGGLVQPGGSPRLSCEASGFTFSSYALSWVRQAPGKGLEWVSAISGSGGGRYYADSVKGRFTISRDNSKNTLFLQMNSLRAEDTAVYYCAKEGYSSSGTYWDHWGQGTLVTVSSASTKGPSVFPLAPSSKSTSGGTAALGCLVKDYFPEPVTVSWNSGALTSGVHTFPAVLQSSGLYSLSSVVTVPSSSLGTQTYICNVNHKPSNTKVDKRVEPKSCDKTHTCPPCPAPEFERGPSVFLFPPKPKDTLMISRTPEVTCVVVDVSHEDPEVKFNWYVDGVEVHNAKTKPREEQYNSTYRVVSVLTVLHQDWLNGKEYKCKVSNKALPAPIEKTISKAKGQPREPQVYTLPPSREEMTKNQVSLTCLVKGFYPSDIAVEWESNGQPENNYKTTPPVLDSDGSFLLYSKLTVDKSRWQQGNVFSCSVMHEALHNHYTQKSLSLSPG
light 1: AIQMTQSPSSVSASVGDRVTITCRASQGVSSWLAWYQQKPGRAPKLLIYVASTLQSGVPSRFSGSGSGTDFTLTINSLQPEDFATYYCQQANSFPPTFGQGTRLEMKRTVAAPSVFIFPPSDEQLKSGTASVVCLLNNFYPREAKVQWKVDNALQSGNSQESVTEQDSKDSTYSLSSTLTLSKADYEKHKVYACEVTHQGLSSPVTKSFNRGEC
heavy 2: QVQLQESGPGLVKPSGTLSLTCAVSGGSISSYSWWSWIRQPPGKGLEWIGELYHSGSTNYNPSLKSRVTISVDKSKNQFSLKLRSVTAADTAVYYCVRGVATIDYWGQGTLVTVSSASTKGPSVFPLAPSSKSTSGGTAALGCLVKDYFPEPVTVSWNSGALTSGVHTFPAVLQSSGLYSLSSVVTVPSSSLGTQTYICNVNHKPSNTKVDKRVEPKSCDKTHTCPPCPAPEFERGPSVFLFPPKPKDTLMISRTPEVTCVVVDVSHEDPEVKFNWYVDGVEVHNAKTKPREEQYNSTYRVVSVLTVLHQDWLNGKEYKCKVSNKALPAPIEKTISKAKGQPREPQVYTLPPSREEMTKNQVSLTCLVKGFYPSDIAVEWESNGQPENNYKTTPPVLDSDGSFFLYSRLTVDKSRWQQGNVFSCSVMHEALHNHYTQKSLSLSPG
light 2: QSALTQPPSASGSPGQSVTISCTGTSSDVGGYNFVSWYQQDPGKAPKLLIYEVTKRPSGVPDRFSGSKSGNTASLTVSGLQAEDEADYYCSSYAGSNNVMFGGGTKLTVLGQPKAAPSVTLFPPSSEELQANKATLVCLISDFYPGAVTVAWKADSSPVKAGVETTTPSKQSNNKYAASSYLSLTPEQWKSHRSYSCQVTHEGSTVEKTVAPTECS
notes: Human IgG1 bispecific made by controlled Fab-arm exchange of IgG1-FAPα-FERL and IgG1-DR4-FERR; monovalent for FAPα and for DR4; also called GEN1057
EC50 [1]: 0.72 mg/L
EC50 [2]: 0.71 mg/L
EC50 [4]: 0.75 mg/L
